Laboratory results as given in patent US20220025032A1 (Novartis, published 2022).
Read-outs that look alike come from different tables or passages of the source.

Tests used:
Human BTC-avitag-biotin [1] = target: T1, Human BTC-avitag-biotin (human, UniProt P35070 32-111, biotin on the avitag); test: flow cytometry: inhibition of biotin-BTC binding to HKB11 cells over-expressing ErbB4; y axis Fluorescent Intensity
T1 construct: also called biotin-BTC; soluble human BTC-avitag-biotin
T1 sequence: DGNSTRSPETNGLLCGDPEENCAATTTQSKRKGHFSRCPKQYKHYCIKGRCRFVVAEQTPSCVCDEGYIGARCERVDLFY
Protocol: (§1) In order to assess potency of the Fabs and bispecific in neutralizing binding of BTC to its receptor Erb 1 or ErbB4, the following assay was performed. HKB11 over-expressing either ErbB1 or ErbB4 cells were plated 1×10⁵ cells/well. Cells were washed once with FACS buffer by spun down at 1200 rpm for 5 minutes and supernatant removed. Next, the Fab sample dilutions and BTC were prepared in FACS buffer. Human BTC-avitag-biotin was diluted to a fixed concentration of 15 nM. The test Fab samples were prepared at a starting concentration of 40 nM and titrated for 9 points at a serial dilution of 1:2. Both biotin-BTC and the test Fab samples are incubated for 30 minutes at room temperature. The pre-incubated samples were then added to the cell plate at 100 μl per well in duplicate and incubated for 1 hour on ice. The plate was then washed once in FACS buffer and spun down at 1200 rpm for 5 minutes and supernatant removed. After suspending the cell pellet with 100 μl/well of diluted secondary antibody streptavidin-Alexa Fluor488 (1:2000) in FACS buffer, the cells were then incubated for 60 min on ice. The cells were washed once with FACS buffer and re-suspended in 120 μl of FACS buffer for flow cytometric analysis.
(§2) Measurements were performed on Attune Flow Cytometry machine. Data were analysed using the Flow Jo software. The live cell populations analysed were gated in forward and side scattering (FSC-A/SSC-A dot plot). The interval gate was established on the control histogram, which was obtained with sample incubated in streptavidin-Alexa Fluor488 only, and subsequently, determined percent of positive binding events of cells carrying membrane-bound receptor ErbB1 or ErbB4 and biotin-BTC. The median of fluorescence intensity (MFI) value was also derived for the live cell population. MFI values were then used to calculate for percent inhibition of test sample and subsequently plotted in GraphPad Prism 7.03 using nonlinear regression (curve fit) model to generate IC50 value.

Human BTC [2] = target: T2, Human BTC (human, UniProt P35070 32-111); test: cell-based inhibition of BTC binding to ErbB1
T2 construct: Soluble human BTC of the Biacore, ELISA, MSD and cell assays; also called human betacellulin; soluble human BTC
T2 sequence: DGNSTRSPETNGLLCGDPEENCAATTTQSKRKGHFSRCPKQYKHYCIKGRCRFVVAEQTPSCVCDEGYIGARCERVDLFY

[3] = target: T3, membrane-bound human BTC on 293F-hBTC cells (human, UniProt P35070 32-111); test: flow cytometry, 293F cells with BTC against 293F
T3 construct: the transfected construct is not described; also called membrane-anchored BTC
T3 sequence: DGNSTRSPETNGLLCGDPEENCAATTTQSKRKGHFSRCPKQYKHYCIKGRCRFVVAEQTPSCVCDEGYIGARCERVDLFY

[4] = target: T3, membrane-bound human BTC on 293F-hBTC …; test: cell-based or functional assay
Human BTC [5] = target: T2, Human BTC; test: cell-based or functional assay
Human BTC [6] = target: T2, Human BTC; test: MSD-based inhibition of BTC binding to ErbB4
Human VEGF165 = target: T4, Human VEGF165 (human, UniProt P15692 27-191); test: SPR Biacore T200, anti-Fab capture
T4 construct: mature; biotinylated in the VEGFR2 ELISAs; also called human VEGF-A; VEGF-A

Human BTC [7] = target: T2, Human BTC; test: MSD-based inhibition of BTC binding to ErbB1
Human BTC [8] = target: T2, Human BTC; test: SPR Biacore T200, anti-Fab capture, antigen as analyte
Human BTC [9] = target: T2, Human BTC; test: cell-based inhibition of BTC binding to ErbB4
Cyno BTC = target: T5, Cyno BTC (cynomolgus, UniProt A0A2K5X5E5 32-111); test: SPR (Biacore/ProteOn)
T5 construct: also called cynomolgus BTC
T5 sequence: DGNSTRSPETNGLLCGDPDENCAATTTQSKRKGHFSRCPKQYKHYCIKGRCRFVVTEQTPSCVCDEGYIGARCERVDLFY

Rabbit BTC = target: T6, Rabbit BTC (rabbit, UniProt G1SJ89 32-111); test: SPR (Biacore/ProteOn)
T6 sequence: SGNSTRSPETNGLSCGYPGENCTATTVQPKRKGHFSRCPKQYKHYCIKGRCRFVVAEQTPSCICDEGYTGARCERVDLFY

Mouse BTC = target: T7, Mouse BTC (mouse, UniProt Q05928 32-111, limits assumed); test: SPR (Biacore/ProteOn)
T7 sequence (looked up): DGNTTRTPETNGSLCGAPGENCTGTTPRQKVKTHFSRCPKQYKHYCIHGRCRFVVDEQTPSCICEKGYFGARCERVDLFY

Rat BTC = target: T8, Rat BTC (rat, UniProt Q9JJM4 32-111); test: SPR (Biacore/ProteOn)
T8 sequence: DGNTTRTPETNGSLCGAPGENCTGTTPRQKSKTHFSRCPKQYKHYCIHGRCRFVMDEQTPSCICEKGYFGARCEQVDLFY

Human BTC [10] = target: T2, Human BTC; test: SPR (Biacore/ProteOn)
[11] = target: T3, membrane-bound human BTC on 293F-hBTC …; test: flow cytometry on 293F cells with membrane-bound human BTC; y axis % Pos Binding
Protocol: (§3) After washing the cells, the cells were dissociated using Versene at 37° C. The cells were washed with FACS buffer and plated at 100 μl in a 96 well plate using cells at 1×10⁶ cells/ml. Then 100 μl of a serial dilution of antibodies starting at 50 nM was used. The cells were incubated, washed and then treated with the secondary anti-human Fab-FITC antibody. The antibodies only bound to the cells expressing BTC. After which the cells were washed and analyzed on the Attune Flow Cytometry. All data analysis was carried out using Flow Jo software.
In FIG. 6A, Flow cytometry was used to assess the binding of NVS11 to membrane-bound BTC using an anti-human Fab antibody for detection.

Human BTC-avitag-biotin [12] = target: T1, Human BTC-avitag-biotin; test: flow cytometry: inhibition of biotin-BTC binding to HKB11 cells over-expressing ErbB1; y axis Fluorescent Intensity
Protocol: as §1, §2

[13] = target: T3, membrane-bound human BTC on 293F-hBTC …; test: flow cytometry on 293F cells with membrane-bound human BTC; y axis % Pos Binding; remark: listed apart in the source
Protocol: as §3

T4 sequence (P15692 other isoform, or with tags, fused parts or gaps): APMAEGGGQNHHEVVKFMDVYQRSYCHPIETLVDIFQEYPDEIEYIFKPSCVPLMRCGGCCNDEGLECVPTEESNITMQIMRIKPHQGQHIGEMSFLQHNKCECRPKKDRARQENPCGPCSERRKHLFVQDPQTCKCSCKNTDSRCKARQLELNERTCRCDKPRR

| Binder | IC50 (Human BTC-avitag-biotin [1]) [nM] | Cell-based binding inhibition BTC/ErbB1 (Human BTC [2]) [%] | Binding to membrane-anchored BTC (median, X above 293F) [3] [X above 293F] | Neutralization of juxtacrine signaling [4] [%] | ADR/Res pErbB3 (IC50 in nM) (Human BTC [5]) [nM] | MSD-based binding inhibition BTC/ErbB4 (Human BTC [6]) [%] | MSD-based binding inhibition BTC/ErbB1 (Human BTC [7]) [%] | Kd (Human BTC [8]) [nM] | Cell-based binding inhibition BTC/ErbB4 (Human BTC [9]) [%] | Kd (Cyno BTC) [nM] | Kd (Rabbit BTC) [nM] | Kd (Mouse BTC) [nM] | Kd (Rat BTC) [nM] | Kd (Human BTC [10]) [nM] | IC50 (Human BTC-avitag-biotin [12]) [nM] | also measured |
| --- | --- | --- | --- | --- | --- | --- | --- | --- | --- | --- | --- | --- | --- | --- | --- | --- |
| NVS3 (Fab, V domains shown, also called Fab NVS3; anti-BTC Fab) VH: QVQLLESGGGLVQPGGSLRLSCAASGFTFSSYAMSWVRQAPGKGLEWVSGLGHVGYTTYTDSVKGRFTISRDNSKNTLYLQMNSLRAEDTAVYYCARDYLDFGYYFDVWGQGTLVTVSS VL: SYELTQPLSVSVALGQTARITCSGDKIGKKYVHWYQQKPGQAPVLVIYDDSDRPSGIPERFSGSNSGNTATLTISRAQAGDEADYYCQAWDMQSVVFGGGTKLTVLG | 2.04 | > 90 | > 10 | 99 | 7.89 | > 90 | > 90 | 0.0044 | > 90 | 0.0054 | 0.017 | < 0.001 | 0.02 | 0.0014 | 1.81 | A431 pERK (column head: IC50 in nM; cell printed as percent) (Human BTC [5]): > 90%; binding result (Human VEGF165): no binding; EC50 [11]: 0.322 nM |
| NVS4 (Fab, V domains shown, also called NVS4 Fab; Fab NVS4) VH: QVQLLESGGGLVQPGGSLRLSCAASGFTFSRYWISWVRQAPGKGLEWVSYIDSTGTFINYADSVKGRFTISRDNSKNTLYLQMNSLRAEDTAVYYCARGGSLFDYWGQGTLVTVSS VL: DIQMTQSPSSLSASVGDRVTITCRASQGIISYLGWYQQKPGKAPKLLIYAASSLQSGVPSRFSGSGSGTDFTLTISSLQPEDFATYYCQQYDALNTFGQGTKVEIKR | 1.8 | > 90 | > 10 | 87 | 6.1 | > 90 | > 90 | 0.0043 | > 90 | 0.012 | 0.001 | 0.005 | 0.008 | 0.005 | 1.61 | A431 pERK (IC50 in nM) (Human BTC [5]): 0.49 nM; inhibition (Human BTC [5]): 99.4%; EC50 [13]: 0.238 nM |
